Laboratory results taken from US8357523B2, “Beta-glucosidase variant enzymes and related polynucleotides” (Codexis, Inc., priority 2009, dated 2013).

B1: 69 (protein)
chain: STAIAQEGAAPAAILHPEKWPRPATQRLIDPAVEKRVDALLKQLSVEEKVGQVIQGDIGTITPEDLRKYPLGSILAGGNSGPNGDDRAPPKEWLDLADAFYRVSLEKRPGHTPIPVLFGIDAVHGHGNIGSATIFPHNIALGATHDPELLRRIGEVTAVEMAATGIDWTFAPALSVVRDDRWGRTYEGFSEDPEIVAAYSAAIVEGVQGKFGSKDFMATGRIVASAKHFLADGGTDQGRDQGDARISEDELIRIHNAGYPPAIDAGVLTVMASFSSWQGIKHHGHKQLLTDVLKGQMGFNGFIVGDWNAHDQVPGCTKFNCPTSLIAGLDMYMAADSWKQLYENTLAQVKDGTIPMARLDDAVRRILRVKVLAGLFEKPAPKDRPGLPGLETLGSPEHRAVGREAVRKSLVLLKNDKGTLPLSPKARVLVAGDGADNIGKQSGGWTISWQGTGNRNDEFPGATSILGGIRDAVADAGGSVEFDVAGQYKTKPDVAIVVFGEEPYAEFQGDVETLEYQPDQKQDLALLKKLKDQGIPVVAVFLSGRPMWVNPELNASDAFVAAWLPGTEGGGVADVLFTDKAGKVQHDFAGKLSYSWPRTAAQTTVNRGDADYNPLFAYGYGLTYKDKSKVGTLPEESGVPAEARQNAGIYFRAGALRLPGRFL
B2: 70 (protein)
chain: STAIAQEGAAPAAILHPEKWPRPATQRLIDPAVEKRVDALLKQLSVEEKVGQVIQGDIGTITPEDLRKYPLGSILAGGNSGPNGDDRAPPKEWLDLADAFYRVSLEKRPGHTPIPVLFGIDAVHGHGNIGSATIFPHNIALGATHDPELLRRIGEVTAVEMAATGIDWTFAPALSVVRDDRWGRTYEGFSEDPEIVAAYSAAIVEGVQGKFGSKDFMALGRIVASAKHFLADGGTDQGRDQGDARISEDELIRIHNAGYPPAIDAGVLTVMASFSSWQGIKHHGHKQLLTDVLKGQMGFNGFIVGDWNAHDQVPGCTKFNCPTSLIAGLDMYMAADSWKQLYENTLAQVKDGTIPMARLDDAVRRILRVKVLAGLFEKPAPKDRPGLPGLETLGSPEHRAVGREAVRKSLVLLKNDKGTLPLSPKARVLVAGDGADNIGKQSGGWTISWQGTGNRNDEFPGATSILGGIRDAVADAGGSVEFDVAGQYKTKPDVAIVVFGEEPYAEFQGDVETLEYQPDQKQDLALLKKLKDQGIPVVAVFLSGRPMWVNPELNASDAFVAAWLPGTEGGGVADVLFTDKAGKVQHDFAGKLSYSWPRTAAQTTVNRGDADYNPLFAYGYGLTYKDKSKVGTLPEESGVPAEARQNAGIYFRAGALRLPGRFL
B3: 73 (protein)
chain: STAIAQEGAAPAAILHPEKWPRPATQRLIDPAVEKRVDALLKQLSVEEKVGQVIQGDIGTITPEDLRKYPLGSILAGGNSGPNGDDRAPPKEWLDLADAFYRVSLEKRPGHTPIPVLFGIDAVHGHGNIGSATIFPHNIALGATHDPELLRRIGEVTAVEMAATGIDWTFAPALSVVRDDRWGRTYEGFSEDPEIVAAYSAAIVEGVQGKFGSKDFMAPGRVVASAKHFLADGGTDQGRDQGDARISEDELIRIHNAGYPPAIDAGVLTVMASFSSWQGIKHHGHKQLLTDVLKGQMGFNGFIVGDWNAHDQVPGCTKFNCPTSLIAGLDMYMAADSWKQLYENTLAQVKDGTIPMARLDDAVRRILRVKVLAGLFEKPAPKDRPGLPGLETLGSPEHRAVGREAVRKSLVLLKNDKGTLPLSPKARVLVAGDGADNIGKQSGGWTISWQGTGNRNDEFPGATSILGGIRDAVADAGGSVEFDVAGQYKTKPDVAIVVFGEEPYAEFQGDVETLEYQPDQKQDLALLKKLKDQGIPVVAVFLSGRPMWVNPELNASDAFVAAWLPGTEGGGVADVLFTDKAGKVQHDFAGKLSYSWPRTAAQTTVNRGDADYNPLFAYGYGLTYKDKSKVGTLPEESGVPAEARQNAGIYFRAGALRLPGRFL
B4: 73b (protein)
chain: STAIAQEGAAPAAILHPEKWPRPATQRLIDPAVEKRVDALLKQLSVEEKVGQVIQGDIGTITPEDLRKYPLGSILAGGNSGPNGDDRAPPKEWLDLADAFYRVSLEKRPGHTPIPVLFGIDAVHGHGNIGSATIFPHNIALGATHDPELLRRIGEVTAVEMAATGIDWTFAPALSVVRDDRWGRTYEGFSEDPEIVAAYSASIVEGVQGKFGSKDFMAPGRIVASAKHFLADGGTDQGRDQGDARISEDELIRIHNAGYPPAIDAGVLTVMASFSSWQGIKHHGHKQLLTDVLKGQMGFNGFIVGDWNAHDQVPGCTKFNCPTSLIAGLDMYMAADSWKQLYENTLAQVKDGTIPMARLDDAVRRILRVKVLAGLFEKPAPKDRPGLPGLETLGSPEHRAVGREAVRKSLVLLKNDKGTLPLSPKARVLVAGDGADNIGKQSGGWTISWQGTGNRNDEFPGATSILGGIRDAVADAGGSVEFDVAGQYKTKPDVAIVVFGEEPYAEFQGDVETLEYQPDQKQDLALLKKLKDQGIPVVAVFLSGRPMWVNPELNASDAFVAAWLPGTEGGGVADVLFTDKAGKVQHDFAGKLSYSWPRTAAQTTVNRGDADYNPLFAYGYGLTYKDKSKVGTLPEESGVPAEARQNAGIYFRAGALRLPGRFL
B5: 73a (protein)
chain: STAIAQEGAAPAAILHPEKWPRPATQRLIDPAVEKRVDALLKQLSVEEKVGQVIQGDIGYITPEDLRKYPLGSILAGGNSGPNGDDRAPPKEWLDLADAFYRVSLEKRPGHTPIPVLFGIDAVHGHGNIGSATIFPHNIALGATHDPELLRRIGEVTAVEMAATGIDWTFAPALSVVRDDRWGRTYEGFSEDPEIVAAYSAAIVEGVQGKFGSKDFMAPGRIVASAKHFLADGGTDQGRDQGDARISEDELIRIHNAGYPPAIDAGVLTVMASFSSWQGIKHHGHKQLLTDVLKGQMGFNGFIVGDWNAHDQVPGCTKFNCPTSLIAGLDMYMAADSWKQLYENTLAQVKDGTIPMARLDDAVRRILRVKVLAGLFEKPAPKDRPGLPGLETLGSPEHRAVGREAVRKSLVLLKNDKGTLPLSPKARVLVAGDGADNIGKQSGGWTISWQGTGNRNDEFPGATSILGGIRDAVADAGGSVEFDVAGQYKTKPDVAIVVFGEEPYAEFQGDVETLEYQPDQKQDLALLKKLKDQGIPVVAVFLSGRPMWVNPELNASDAFVAAWLPGTEGGGVADVLFTDKAGKVQHDFAGKLSYSWPRTAAQTTVNRGDADYNPLFAYGYGLTYKDKSKVGTLPEESGVPAEARQNAGIYFRAGALRLPGRFL
B6: 71 (protein)
chain: STAIAQEGAAPAAILHPEKWPRPATQRLIDPAVEKRVDALLKQLSVEEKVGQVIQGDIGTITPEDLRKYPLGSILAGGNSGPNGDDRAPPKEWLDLADAFYRVSLEKRPGHTPIPVLFGIDAVHGHGNIGSATIFPHNIALGATHDPELLRRIGEVTAVEMAATGIDWTFAPALSVVRDDRWGRTYEGFSEDPEIVAAYSALIVEGVQGKFGSKDFMAPGRIVASAKHFLADGGTDQGRDQGDARISEDELIRIHNAGYPPAIDAGVLTVMASFSSWQGIKHHGHKQLLTDVLKGQMGFNGFIVGDWNAHDQVPGCTKFNCPTSLIAGLDMYMAADSWKQLYENTLAQVKDGTIPMARLDDAVRRILRVKVLAGLFEKPAPKDRPGLPGLETLGSPEHRAVGREAVRKSLVLLKNDKGTLPLSPKARVLVAGDGADNIGKQSGGWTISWQGTGNRNDEFPGATSILGGIRDAVADAGGSVEFDVAGQYKTKPDVAIVVFGEEPYAEFQGDVETLEYQPDQKQDLALLKKLKDQGIPVVAVFLSGRPMWVNPELNASDAFVAAWLPGTEGGGVADVLFTDKAGKVQHDFAGKLSYSWPRTAAQTTVNRGDADYNPLFAYGYGLTYKDKSKVGTLPEESGVPAEARQNAGIYFRAGALRLPGRFL
B7: 72 (protein)
chain: STAIAQEGAAPAAILHPEKWPRPATQRLIDPAVEKRVDALLKQLSFEEKVGQVIQGDIGTITPEDLRKYPLGSILAGGNSGPNGDDRAPPKEWLDLADAFYRVSLEKRPGHTPIPVLFGIDAVHGHGNIGSATIFPHNIALGATHDPELLRRIGEVTAVEMAATGIDWTFAPALSVVRDDRWGRTYEGFSEDPEIVAAYSAAIVEGVQGKFGSKDFMAPGRAVASAKHFLADGGTDQGRDQGDARISEDELIRIHNAGYPPAIDAGVLTVMASFSSWQGIKHHGHKQLLTDVLKGQMGFNGFIVGDWNAHDQVPGCTKFNCPTSLIAGLDMYMAADSWKQLYENTLAQVKDGTIPMARLDDAVRRILRVKVLAGLFEKPAPKDRPGLPGLETLGSPEHRAVGREAVRKSLVLLKNDKGTLPLSPKARVLVAGDGADNIGKQSGGWTISWQGTGNRNDEFPGATSILGGIRDAVADAGGSVEFDVAGQYKTKPDVAIVVFGEEPYAEFQGDVETLEYQPDQKQDLALLKKLKDQGIPVVAVFLSGRPMWVNPELNASDAFVAAWLPGTEGGGVADVLFTDKAGKVQHDFAGKLSYSWPRTAAQTTVNRGDADYNPLFAYGYGLTYKDKSKVGTLPEESGVPAEARQNAGIYFRAGALRLPGRFL
B8: 134 (protein)
chain: STAIAQEGAAPAAILHPEKWPRPATQRLIDPAVEKRVDALLKQLSVEEKVGQVIQGDIGTITPEDLRKYPLGSILAGGNSGPNGDDRAPPKEWLDLADAFYRVSLEKRPGHTPIPVLFGIDAVHGHGKIGSATIFPHNIALGMTRDPELLRRIGEVTAEEMAATGIDWTFAPCLSVVRDDRWGRTYEGFSEDPEIVAAYSPAIVEGVQGKYGSKDFMAVGRIVASAKHFLADGGTDQGRDQGDARISEDELIRIHNAGYPPAIDAGVLTVMASFSSWQGIKHHGHKQLLTDVLKGQMGFNGFIVGDWNAHDQVPGCTKFNCPTSLIAGLDMYMAADSWKQLYENTLAQVKDGTIPMARLDDAVRRILRVKVLAGLFEKPAPKDRPGLPGLETLGSPEHRAVGREAVRKSLVLLKNDKGTLPLSPKARVLVAGDGADNIGKQSGGWTISWQGTGNRNDEFPGATSILGGIRDAVADAGGSVEFDVAGQYKTKPDVAIVVFGEEPYAEFQGDVETLEYQPDQKQDLALLKKLKDQGIPVVAVFLSGRPMWVNPELNASDAFVAAWLPGTEGGGVADVLFTDKAGKVQHDFAGKLSYSWPRTAAQTTVNRGDADYNPLFAYGYGLTYKDKSKVGTLPEESGVPAEARQNAGIYFRAGALRLPGRFL

assay: High throughput cellobiose assay: fold improvement in cellobiase activity of CelA variants over a control enzyme (Tables 2A-2D, 3, 5, 6, 7); assay type: biochemical; details: 3.3 g/l cellobiose, 50° C. and pH 6.5; compared to native CelA (SEQ ID NO: 4)

Molecule	Fold improvement over wildtype CelA
B1	+ (+ = 1.1 to 2.0 fold improvement over native CelA (SEQ ID NO: 4))
B2	+ (+ = 1.1 to 2.0 fold improvement over native CelA (SEQ ID NO: 4))
B3	+ (+ = 1.1 to 2.0 fold improvement over native CelA (SEQ ID NO: 4))
B4	+ (+ = 1.1 to 2.0 fold improvement over native CelA (SEQ ID NO: 4))
B5	+ (+ = 1.1 to 2.0 fold improvement over native CelA (SEQ ID NO: 4))
B6	+ (+ = 1.1 to 2.0 fold improvement over native CelA (SEQ ID NO: 4))
B7	+ (+ = 1.1 to 2.0 fold improvement over native CelA (SEQ ID NO: 4))

same assay, conditions: 3.3 g/l cellobiose, 55° C. and pH 6.0

Molecule	Fold improvement over Control Variant No. 5 from Table 2A
B8	++ (++ = 1.1 to 6 fold improvement over control Variant No. 2)
